Data from doi:10.1101/2025.04.18.649599.

Columns and labels:
Test in all cases: photon counting histogram
[1] = biological target: HaloTag-bZip-VfAuLOV (V. frigida)
[2] = biological target: HaloTag-HsCRY2 (human CRY2 photolyase homology region) (human)
[3] = biological target: HaloTag-AtCRY2 (photolyase homology region of cryptochrome 2 from A. thaliana) (A. thaliana)
[4] = biological target: HaloTag-AtCRY2(W374A) (A. thaliana)
[5] = biological target: HaloTag-VfAuLOV (light-oxygen-voltage (LOV) domain of V. frigida Aurochrome1) (V. frigida)

HaloTag-bZip-VfAuLOV (domain or fragment)
stoichiometry N [1]: 2

HaloTag-HsCRY2 (human CRY2 photolyase homology region) (domain or fragment)
relative brightness at about 750 nM (relative to the monomeric standard) [2]: 1.6

HaloTag-AtCRY2 (photolyase homology region of cryptochrome 2 from A. thaliana) (domain or fragment)
relative brightness (relative to the monomeric standard) [3]: 2 to 4
relative brightness at 750 nM (relative to the monomeric standard) [3]: 3
stoichiometry N [3]: 4

HaloTag-AtCRY2(W374A) (domain or fragment)
relative brightness (relative to the monomeric standard) [4]: 1.5

HaloTag-VfAuLOV (light-oxygen-voltage (LOV) domain of V. frigida Aurochrome1) (domain or fragment)
stoichiometry N [5]: 2
